In publication PMC10906455, “Disruption of CFAP418 interaction with lipids causes widespread abnormal membrane-associated cellular processes in retinal degenerations” (JCI Insight, 2024):

Biological target: mCherry-RAB28 WT (UniProt Q99KL7 1-221)
Assay: co-IP; HEK293 cells cotransfected with FLAG-CFAP418 and mCherry-RAB28 WT, T26N, Q72L or mCherry; mCherry proteins 'pulled down', FLAG-CFAP418 seen only in the overexposed immunoblot
Settings: partners not purified

fraction of CFAP418 pulled down: ~0.1%
B1: FLAG-CFAP418 (natural protein)
chain: MAKDLDELLDEVETKFCRLDPLRLDLGERPKGDGGGGSHSGDRNGAQEKETLRSTETFKKEDDLDSLINEIFEEPDFDRKSFQKFKSKSSSNTCVRAPMQGVSKSCSPVYLSGSAIPCGIGTNTSQRACDRLRCVACDFRIVSYNDYMWDKSCDYLFFRNNMPEFHKLKTKLIEKKGARAYACQCSWRTVEELTDLQTDHQLRWVCGKH
notes: CFAP418; source: HEK293, cotransfected, in lysate
